The data set can be described thus: yeast display, Sf9 membrane polyspecificity reagent, FACS + sequencing; frameworks hold sequencing errors. An outline of the steps: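 Nanobodies from a synthetic yeast display library (Saccharomyces cerevisiae BJ5465), induced 36–48 hours with galactose, were stained 1 hour at 4 °C with 10% biotinylated, detergent-solubilized Sf9 membrane reagent, enriched on streptavidin microbeads, then FACS-sorted. Anti-HA (expression) and streptavidin (reagent binding) fluorescence set low and high (top ~1%) gates. Polyreactivity labels come from the gate of origin. Genes were colony-PCR amplified, MiSeq 2 × 250 sequenced and filtered by CDR length.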
Take “QDQLVESGGGLVQAGGSLRLSCAASGSTFNAYAMGWYRQAPGKERQLVASITKSGGRTYYADSVKRRFTISRDNAKNTVYLQMNRLKPEDSAVYYCAARYVWRSTHHRGSTYDYWGQGTQVTVSS”: the “polyreactivity (PSR sort gate)” value is given as “high polyreactivity”. For the sequence “QDQLVESGGGLVQAGGSLRLSCAASGSTFNIYAMGWYRQAHGTVRELVARITSGGSTNYADSVKGRFTISRDNAKNTVYLQMKSLKPEDTAVYYCAARLKWGLPTYDYWGQGTQVTVSS”, the “polyreactivity (PSR sort gate)” value was “high polyreactivity”. As for “QDQLVESGGGLVQAGGSLRLSCAASGSTFPYNVMGWYRQAPGKEREFVAAISSSSGSTYYADSVKGRFTISRDNAKNTVYLQLNSLKPEDTAVYYCARRHPRQRQDGKVDYWGQGTQVTVSS”, the “polyreactivity (PSR sort gate)” value is “low polyreactivity”. Take “QDQLVESGGGLVQAGGSLRLSCAASGSTFRRYTMGWYRQAPGKERELVAVITKSGGSTYYADSVKGRFTISRDNAKNTVYLQMNRLKPEDTAVYYCAAGVAWRFYSWLGHFNGFDYWGQGTQVTVSS”: the “polyreactivity (PSR sort gate)” value is recorded as “high polyreactivity”. For the sequence “QDQLVESGGGLVQAGGSLRLSCAASGSTFSYYAMGWYRQAPGKERELVAAITWSDGSTYYADSVKGRFTISRDYAKNTVYLQMNSLKPEDTAVYYCNAEISQLDGVTFKYDYWGQGTQVTVSS”, the “polyreactivity (PSR sort gate)” value is recorded as “low polyreactivity”. To “QDQLVESGGGLVQAGGSLRLSCAASGSTFVKYAMGWYRQAAGTERELVASITKRGGSTYYADSVKGRFTISRDKAKNTVYLQMNSLKPEDTAVYYCNAARGLYNAPKYGSIGFDYWGQGTQVTESS” belongs “high polyreactivity”. For the sequence “QDQLVESGGGLVQAGGSLRLSCAASGSTFWFYAMGWSRQAPGKEWELVAVISNSGSTYYADSVKGRFTISRDNAKNTVYLQLNSLKPEDTAVYYCNTDGGGDSYWYDYWGQGTQVTVSS”, the “polyreactivity (PSR sort gate)” value is “low polyreactivity”. To “QDQLVESGGGLVQAGGSLRLSCAASGSTISGSAMGWYRQAPGKVRELVATMSRGGSTTYADSVKGRFTISRDNAKNTVYLQMNSLKPEDTAVYYCAAQTYVWWVKYHSGGQGTQVTVSS” belongs “low polyreactivity”; to “QDQLVESGGGLVQAGGSLRLSCAASGSTIYAYAMGWYRQAPGKERELVARIRWRGGRTYYADSVKGRFTISRDNAKNTVYLRMNSLKPEDTAVYYCAAYKRRSNGRYWTYDYWGQGTQVTVSS”, “high polyreactivity”; to “QDQLVESGGGLVQAGGSLRLSCAASGSTLAYNAKGWYRPAPGKERELVAGIRGSGGSTYYADSVKGRFTISRDNAKNTVYLLMNSLKPEDTAVYDCAAAGYYYYLYAAYYYWGQGTQVTVSS”, “low polyreactivity”. For “QDQLVESGGGLVQAGGSLRLSCAASRNIFYINTMGWYIQAPGKERALVAAIDASDGTTYYADSVKGRFTISRDNAKNTVYLQMNSVKPEDTAVYYCATRRGYDSVYYFYTLWYYYWGQGTQVTVSS”, the “polyreactivity (PSR sort gate)” value is “low polyreactivity”. Take “QDQLVESGGGLVQAGGSLRLSCAASVITFDLYAMGWYRQAPGKERELVAAISISSTSTYYADSVKGLFTISRDNAKNTVYLQMISLKPEDTAGYYCNAVPSSKTFWFDYWGLGTQVTVSS”: the “polyreactivity (PSR sort gate)” value was “low polyreactivity”. In the case of “QDQLVESGGGLVQAGGSLRLSCAASVSIFGYYAMGWYRQAHGKERELVADITSSGSTYYADSVKGRFTISRDNAKNTVYLQMNSLKPEDTAVYYCAADQYYLGSIDGFEYWGQGTQVTVSS”, the “polyreactivity (PSR sort gate)” value is reported as “low polyreactivity”. Take “QDQLVESGGGLVQAGGSLRLSCAAYGRTFVPYAMGWYRQAPGKEREFVAVITWGGGSTYYADSVKGRFTISRDNAKNTVYLQMNSLKPEDTAVYYCAARNRRATGLGSRYGYWGQGTQVTVSS”: the “polyreactivity (PSR sort gate)” value is “high polyreactivity”. To “QDQLVESGGGLVQAGGSLRLSCAAYGSIFYVYAMGWYRQAPGKERELVAAIRRTGSSTYYADSVKGRFTISRDNAKNTVSLQMNSLKPEDTAVYYCAASYWRARAGSYDYWGQGTQVTVSS” belongs “high polyreactivity”.

For “QDQLVESGGGLVQAGGSLRLSCADYGNLVYNAKGWSRQAPGKERELVAAISARGGRTYYADSVKGRFTISRDNAKNTVYLQMNSLNPEDTAVYYCAARSYRLDSYYWGQGTQVSVSS”, the “polyreactivity (PSR sort gate)” value is listed as “high polyreactivity”. With “QDQLVESGGGLVQAGGSLRLSCAPSGFILATNAMGWYRPAPGKERELVAAISYSCGSTNYADSVKGRFTISRDNAKNTVYLQMISLKPVDTAVYYCNDGGSVIWAWYGPVYSWGQGTQVTVSS”, the “polyreactivity (PSR sort gate)” value is on record as “low polyreactivity”. Regarding “QDQLVESGGGLVQAGGSLRLSCASSGFTFYVYAMGWYRQAPGKERELVAAISRSGSRTYYADSVKGRVTISRDNAQKTVYLQMNSLKPEDTAVYYCARVRPRGLYFVLHYDYWGQGTQVTVSS”, the “polyreactivity (PSR sort gate)” value is “high polyreactivity”. With “QDQLVESGGGLVQAGGSLRLSCASSGRIFRWYAMGWYRQATGKERELVAAISWSGDSTYYADSVKGRFSISRDNAKNNVYLEMNSLKPEDTAVYYCNYVLYKSDYWGQGTQVTVSS”, the “polyreactivity (PSR sort gate)” value is recorded as “high polyreactivity”. The value for “QDQLVESGGGLVQAGGSLRLSCSASGFTITHNAMGWYRQAPGKEREFVATISRSGGRTYYADSVKGRFTISRDNAKNTVFFQMNSLKPEDTPVYYCAARTSGYWYSYGSWGQGTQVTVSS” was “high polyreactivity”; that for “QDQLVESGGGLVQAGGSLRLSFAASGFTFDHYAMGWSRQAPGKEREYVARITGTGDSTYYADSVKGRFTISRDNAKNTVYLQMNSLKPEDTAVYYCAKDFTGHYPNGFDYWGQGTQVTVSS” was “low polyreactivity”; that for “QDQLVESGGGLVQAGGSLRLSFAASGRIIYYNAMGWYRQAPGKERELVAAISFSDGSTYYADSVKGRFTISRDNAKKTVYLQMNSLKPEDTAVYYCAADIGYYYDYWGQGTLVTVSS” was “low polyreactivity”. For the sequence “QDQLVESGGGLVQAGGSLRLSFAAYGSTFIVYAMGWYRHAPGKERDLVAAISLDGGSTYYADSVKGRFTISLDNAKNNVYLQMNSLKPEDTAVYYCNADYYANSITYDSWGQGTQVTVSS”, the “polyreactivity (PSR sort gate)” value is on record as “low polyreactivity”. For “QDQLVESGGGLVQAGGSLRLSGAASGRIFGYYAMGWYRQPPGKETELVARISSGGGSTYYADSVKGRFTISRDNAKNTVYLQLNSLKPEDTAVDYCATVLYPYSPRYDYWGQGTLVTVSS”, the “polyreactivity (PSR sort gate)” value is on record as “high polyreactivity”. On to “QDQLVESGGGLVQAGGSLRLSGAASGRTFRRYAKGWDRQAPGKEREWVATISSGGSTYYADSVKGRFTISRDNAKNTVYLQMNSLKPEDTALYYCAVRYWRAYYRYDYWGQGTQVTVSS”, for which the “polyreactivity (PSR sort gate)” value is “high polyreactivity”.

In the case of “QDQLVESGGGLVQAGGSLRLTCAASGFIFDRNTMGLYRQATGNDTELVAAISRSGGSTYYSDSVNGRFTISRDNAKNTVYLQMNSMKPEDTAVYNCGALYYYRNRSYYYWGQGTHVTVSS”, the “polyreactivity (PSR sort gate)” value is “high polyreactivity”. As to “QDQLVESGGGLVQAGGSLRLTCAASGGIFWSYAMGWYRQAPGKERDLVAAINWNAGSTYYADSVKGRFTISRDNAKNTVYLQMNSLKPEDTAVYYCAKVQWHLYDWGQGTQVTVSS”, the “polyreactivity (PSR sort gate)” value is “high polyreactivity”. With “QDQLVESGGGLVQAGGSLSLSCAASGLIFSDNAMGWYRQAPGKERELVATITFSGSTNYADSVKGRFTISRDNAKNTVYLQMNSLKPEDTAVFFCAADAGGGPFEYWGQGTHVTVSS”, the “polyreactivity (PSR sort gate)” value is “low polyreactivity”.

In the case of “QDQLVESGGGLVQAGGSLSLSCAASGRTLWRNTMGWYRQAPGKERELVAAITTRGGSTYYADSVKGRFTISRDTAKNTVYLQLNSLKPEDTAVYYCAARTYTGEGSGRFYYWGQGTQVTVSS”, the “polyreactivity (PSR sort gate)” value is “high polyreactivity”. On to “QDQLVESGGGLVQAGGSLSLSCAASGSTYDRNAMGWYIQAPGKEREMVAGISFSGGTTYYADSVKGRFTISRDNAKNTVYLQMNRLKPEDTEVYDCAASTYQPGAVPFDYWGQGSQVTVSS”, for which the “polyreactivity (PSR sort gate)” value is recorded as “low polyreactivity”. Consider “QDQLVESGGGLVQAGGSLSLSCAASRFIYLTYAMGWSRQAPGKERELVAAISSRGGSTYYADSVKGRFTISRDNAKNTVYLQMNSLKPEDTAVYYCAYTRGKYDYWGQGTQVTVSS”, for which the “polyreactivity (PSR sort gate)” value is reported as “high polyreactivity”. Turning to “QDQLVESGGGLVQAGVSLRLRSAASGFISQENAMGWYRQAPGKDRELVATISGSVGITYYADSVKGRFTISRDNAKNTVYLQMNSLKPEDTAVYYCNKEISYLSWGYDYWGLGTQVTVSS”, the “polyreactivity (PSR sort gate)” value is “low polyreactivity”. “QDQLVESGGGLVQARGTLRLSCAASGRTFYQNAMGWYRHAPGKEREFVGAITGGTGSTHYADSVKGRFTISRDNAKNTVFLQMNSLKPEDTAVYYCATRYLLGFSRYDYCGQGTQVTVSS”: the “polyreactivity (PSR sort gate)” value is on record as “low polyreactivity”. As for “QDQLVESGGGLVQEGGSLRLSCAASGRIFVGYAMGWSRQAPGKERELVAAISSSGGRTYYADSVKGRFTISRDNAKNTVYFQMNSLQPEDTAVYYCAAGRFIWGTWALDYWGQGTQVTVSS”, the “polyreactivity (PSR sort gate)” value is recorded as “high polyreactivity”. With “QDQLVESGGGLVQPGGSLRLSCAASGTIIPRSAMGWYRQATGKERELVAAISQRGGSTFYADSVKWRFTISRDNAKNTVYLQMNRLKPEVTAVYYCAADPGVQRGHIDRMYYWGQGTQVTVSS”, the “polyreactivity (PSR sort gate)” value is on record as “high polyreactivity”. “QDQLVESGGGLVQTGGSLRLSWAASGSTFYNTVMGWYRQAPGKERELVAAINSGGRTYYADSVKGRFTISRDNAKNTVYLQMNSLNPEDTAVYYCAVGYGRAARMDYWGQGTQVTVSS”: the “polyreactivity (PSR sort gate)” value was “high polyreactivity”.

For “QDQLVESGGGLVRAGGSLRLSCAASGSIFVVNAMGLYRQAPGKERELVADINSGGSTNFADSVKGRFTISRDNAKNTVYLQMNSLKPEDTAVYYCAKSAVTGTYDYWGQGTLVTVSS”, the “polyreactivity (PSR sort gate)” value was “low polyreactivity”. For the sequence “QDQLVESGGVLFQAGGSLRLTCAAYGRILYHYDMGWYRQAPGKERELVAAITRGAGTNYADSVKGRFTISRDNAKNTVYVQMNSLKPEDTAVYYCNADRFIVTRSRRGDYWGQGTQVTVSS”, the “polyreactivity (PSR sort gate)” value is “low polyreactivity”. For the sequence “QDQLVESGGWLVQAGGTLRLSCAASGRILWFYAMGWYRQAPGKERELVASISGSGGSTFYADSVKGRFTISRDNAKNTVYLQMNRLKPEDTAVYYCAAYKEPYYEEYGYWGQGTQVTVSS”, the “polyreactivity (PSR sort gate)” value is “low polyreactivity”. Regarding “QDQLVESGVGIVQAGGSLRLSCAASGSTFGIYAKGWYRQAPGKETELDAAISSGASTNYADSVKGRFTISRDNEKNTVYLQMNSLKQEDTAVYYCAVESVYEYGGYVDSAYDYWGQGTQVTVSS”, the “polyreactivity (PSR sort gate)” value was “low polyreactivity”. For the sequence “QDQLVESGVGLVQAGGILRLSCAASVSTFNRYAMVWYRQAPGKERELVAAISSSGGYTYYADSVKGRFTNSRDNAKNTVYFQMNSLKAEDTAVYYCNAAYRVRRFDYWGQGTQVTVSS”, the “polyreactivity (PSR sort gate)” value is given as “low polyreactivity”.

The values are drawn from the nanobody polyreactivity screen of Harvey et al. (2022).
